Data on 1 molecule can be found in article PMC3575847 (Nucleic Acids Research, 2012).

The target of the assay is T1, Upf1-FL produced in E. coli (Upf1-FLc; amino acids 1–1118) (human, UniProt Q92900-2 1-1118).
T1 sequence (looked up): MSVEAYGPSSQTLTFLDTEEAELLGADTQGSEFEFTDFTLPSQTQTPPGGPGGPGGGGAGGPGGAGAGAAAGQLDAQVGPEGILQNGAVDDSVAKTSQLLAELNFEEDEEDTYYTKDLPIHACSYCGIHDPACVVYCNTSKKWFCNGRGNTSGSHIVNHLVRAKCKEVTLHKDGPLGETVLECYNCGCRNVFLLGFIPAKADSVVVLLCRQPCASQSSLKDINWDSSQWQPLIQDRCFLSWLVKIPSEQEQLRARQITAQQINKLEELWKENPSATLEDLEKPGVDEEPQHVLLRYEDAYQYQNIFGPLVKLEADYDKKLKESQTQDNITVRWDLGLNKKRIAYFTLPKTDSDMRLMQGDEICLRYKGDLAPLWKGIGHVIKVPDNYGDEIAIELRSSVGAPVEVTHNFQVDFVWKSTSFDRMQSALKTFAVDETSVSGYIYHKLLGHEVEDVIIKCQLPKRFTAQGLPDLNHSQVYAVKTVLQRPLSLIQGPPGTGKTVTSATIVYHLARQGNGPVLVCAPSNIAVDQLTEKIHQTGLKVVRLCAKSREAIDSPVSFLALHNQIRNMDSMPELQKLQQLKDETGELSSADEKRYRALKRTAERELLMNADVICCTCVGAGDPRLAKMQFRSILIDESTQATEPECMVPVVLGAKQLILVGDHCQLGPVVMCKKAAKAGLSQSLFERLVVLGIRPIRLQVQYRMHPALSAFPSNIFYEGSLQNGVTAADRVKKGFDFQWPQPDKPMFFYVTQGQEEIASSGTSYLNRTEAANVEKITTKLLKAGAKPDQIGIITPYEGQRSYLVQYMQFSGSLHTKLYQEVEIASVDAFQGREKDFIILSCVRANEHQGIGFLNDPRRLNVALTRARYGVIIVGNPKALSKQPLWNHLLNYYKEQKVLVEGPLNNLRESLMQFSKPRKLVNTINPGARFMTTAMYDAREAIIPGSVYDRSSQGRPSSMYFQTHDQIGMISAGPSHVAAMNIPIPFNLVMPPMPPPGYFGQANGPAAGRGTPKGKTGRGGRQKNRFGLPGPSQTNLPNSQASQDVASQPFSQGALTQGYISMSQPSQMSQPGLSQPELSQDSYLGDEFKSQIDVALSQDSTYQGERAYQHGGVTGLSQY
The experiment in a line: pull-down.

B1: CBP-tagged Upf2 (761–1227) (domain or fragment, UniProt Q9HAU5 761-1227, looked up)
chain: EKTVKKKRPPLQEYVRKLLYKDLSKVTTEKVLRQMRKLPWQDQEVKDYVICCMINIWNVKYNSIHCVANLLAGLVLYQEDVGIHVVDGVLEDIRLGMEVNQPKFNQRRISSAKFLGELYNYRMVESAVIFRTLYSFTSFGVNPDGSPSSLDPPEHLFRIRLVCTILDTCGQYFDRGSSKRKLDCFLVYFQRYVWWKKSLEVWTKDHPFPIDIDYMISDTLELLRPKIKLCNSLEESIRQVQDLEREFLIKLGLVNDKDSKDSMTEGENLEEDEEEEEGGAETEEQSGNESEVNEPEEEEGSDNDDDEGEEEEEENTDYLTDSNKENETDEENTEVMIKGGGLKHVPCVEDEDFIQALDKMMLENLQQRSGESVKVHQLDVAIPLHLKSQLRKGPPLGGGEGEAESADTMPFVMLTRKGNKQQFKILNVPMSSQLAANHWNQQQAEQEERMRMKKLTLDINERQEQED
Consider B1, for which the binding result is on record as “binds”.
